From paper PMC11513070

B1: SPPL2c isoform A: N106A (protein)
parent chain: MACLGSLHPLGSLLLLFLLLLLSPEARGEYGLVRVVSKNWSKDYCVLYSSDYVNLPRDLHHAPLLSLHDGTKTPWCPDEDSFHQAQDSSPRQRPLHQTTTMVTRGNCSFYAKGWLAQDQGAQGLLIVSRARNQQCSDTISKPQDPSKPWPALTIPVAVLRYTDMLDIVSHTYGDTDVRVAMFAPLEPVTDYNMAIIFILAVGTVAAGGYWAGLMEANKLQRRQAQRGGGLGGHNQQQTVAAERSQRAWEDDDFEDAPMDFTPAMTGAVVTMSCSIMILLYFFYDCFVYVMIGIFSLGASTGLYSCLAPILCHLPLWRYQWVLPGQRVSVTWPLLLLAGLCAMVTVLWVIHRNEDHWAWLLQDTLGVAYCLFVLRRVRLPTFKNCTLFLLALLAFDVFFVFITPLFTKTGESIMVEVASGPADSSSHERLPMVLKVPRLSFSALTLCNQPFSILGFGDIVVPGFLVAYCHRFDMQVQSRQVYYMACTVAYAVGLLVTFVAMILMQMGQPALLYLVSSTLLTSLAVATCRQEFTLFWTGQGRAKIPAEPVAQPCIASAVGSKMKLEDAKDSRTTNRFEQAVDGESGDLESSTGDDMAEMVTLSEDEATSPEGHSESSEGWSDTNLDPNELPSGSPMALEAMLIPLIQPIPHPSELGHIRTQSRVHDSSLPWMGLHKRKGLKVKKSMSAQAPL
B2: SPP: N10/20A (protein)
parent chain: MDSAVSDPHNGSAEAGTPANGTTRPPSTPEGIALAYGSLLLMALLPIFFGALRSVRCARGKSSSDMPETITSRDAARFPIIASCTLLGLYLFFKIFSQEYINLLLSMYFFVLGILALSHTISPFMNKFFPANFPNRQYQLLFTQGSGENKEEIINYEFDTKDLVCLGLSSVVGVWYLLRKHWIANNLFGLAFSLNGVELLHLNNVSTGCILLGGLFIYDIFWVFGTNVMVTVAKSFEAPIKLVFPQDLLEKGLEADNFAMLGLGDIVIPGIFIALLLRFDISLKKNTHTYFYTSFAAYIFGLGLTIFIMHIFKHAQPALLYLVPACIGFPVLVALAKGEVAEMFSYEESNPKDPAAETESKEESTEASASKRLEKKEK

How the values were obtained:
[1] = cell-based cleavage assay, western blot; conditions: glycan lost
[2] = immunofluorescence of HO-1 ICD nuclear translocation, HeLa; conditions: glycan lost; control: wild type SPPL2c-myc
[3] = western blot of total lysates, HEK293T; conditions: glycan lost; control: wild type SPPL2c-myc

Protein	enzymatic_activity ([1]; control: wild type SPPL2c-myc)	enzymatic_activity [2]	expression_or_secretion [3]	enzymatic_activity ([1]; control: wild type SPP-myc)
B1	abolishes	abolishes	decreases	
B2				no change
